{"source": "paper PMC9307980", "about": "“High-Affinity Single-Domain Antibodies for Analyzing Human Apo- and Holo-Transferrin” (Acta Naturae, 2022)", "binders": {"B1": {"name": "aTf1 nanobody (anti-human transferrin single-domain antibody) (VHH)", "VHH": "QVQLVESGGGLVQPGGSLTLSCAASGFTFSTYAMKWVRQAPGMGLEYVASINNGGTSTFYSASVKGRFTISRDNAKNTLYLQLNSLKTEDTAMYYCARINEYSTRGQGTQVTVSS", "notes": "variable domain of aTf1; HA-tag and His-tag follow it; source: generated in the bacterial periplasm, isolated and purified"}, "B2": {"name": "aTf2 nanobody (anti-human transferrin single-domain antibody) (VHH)", "VHH": "QVQLVESGGGSVQAGGSLRLSCAVSGYMYSTNCMGWFRQAPGKEREGVAAIYTGGGSTYYPDSVKGRFTISQDNAKNTVYLQMNSLKPEDTAMYYCAAMRHCPYGGNWDHPVNYLGQGTQVTVSS", "notes": "variable domain of aTf2; long CDR3, cysteines in CDR1 and CDR3; HA-tag and His-tag follow it; source: generated in the bacterial periplasm, isolated and purified"}}, "key": {"apo-Transferrin human": {"target": "T1, apo-Transferrin human (Homo sapiens, UniProt P02787)", "T1 construct": "human transferrin (serotransferrin), iron-free form, commercial preparation; Iron-free form of transferrin; same polypeptide as holo-Tf; also called apo-Tf; source: bought: Sigma-Aldrich", "T1 sequence (P02787 20-698)": "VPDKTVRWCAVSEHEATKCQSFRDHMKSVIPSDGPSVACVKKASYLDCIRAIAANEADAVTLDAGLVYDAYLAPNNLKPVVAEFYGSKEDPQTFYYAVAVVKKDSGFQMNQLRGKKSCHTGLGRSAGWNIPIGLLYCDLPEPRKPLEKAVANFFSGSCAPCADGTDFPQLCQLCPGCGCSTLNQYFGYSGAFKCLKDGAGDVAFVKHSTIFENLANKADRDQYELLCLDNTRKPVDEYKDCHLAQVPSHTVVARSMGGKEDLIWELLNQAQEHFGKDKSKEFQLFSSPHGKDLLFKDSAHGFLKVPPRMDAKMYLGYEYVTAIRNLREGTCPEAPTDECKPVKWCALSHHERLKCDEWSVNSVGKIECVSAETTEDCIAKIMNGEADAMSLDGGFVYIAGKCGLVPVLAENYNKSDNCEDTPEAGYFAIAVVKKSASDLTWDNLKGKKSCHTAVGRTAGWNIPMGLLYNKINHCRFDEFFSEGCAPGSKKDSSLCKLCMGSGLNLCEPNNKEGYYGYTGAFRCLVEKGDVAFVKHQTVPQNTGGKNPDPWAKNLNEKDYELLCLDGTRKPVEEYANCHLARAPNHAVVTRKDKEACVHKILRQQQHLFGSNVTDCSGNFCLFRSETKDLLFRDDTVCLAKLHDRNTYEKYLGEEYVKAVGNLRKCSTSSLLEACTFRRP", "experiment": "ITC; in solution, PBS pH 7.4, MicroCal PEAQ-ITC; fitting model: sequential binding sites, number of sites 2", "conditions": "both partners purified"}, "holo-Transferrin human": {"target": "T2, holo-Transferrin human (Homo sapiens, UniProt P02787)", "T2 construct": "human transferrin (serotransferrin), iron-saturated form, commercial preparation; same polypeptide as apo-Tf; also called holo-Tf; source: bought: Sigma-Aldrich", "T2 sequence (P02787 20-698)": "as above", "experiment": "ITC; in solution, PBS pH 7.4, MicroCal PEAQ-ITC; fitting model: sequential binding sites, number of sites 2", "conditions": "both partners purified"}}, "data": [{"binder": "B1", "values": [{"measurement": "KD1 (sequential binding sites, site 1)", "setting": "apo-Transferrin human", "result": "~99.4", "unit": "nM"}, {"measurement": "KD1 (sequential binding sites, site 1)", "setting": "holo-Transferrin human", "result": "~0.44", "unit": "nM"}, {"measurement": "KD2 (sequential binding sites, site 2)", "setting": "holo-Transferrin human", "result": "~1.44", "unit": "nM"}]}, {"binder": "B2", "values": [{"measurement": "KD1 (sequential binding sites, site 1)", "setting": "apo-Transferrin human", "result": "~0.82", "unit": "nM"}, {"measurement": "KD2 (sequential binding sites, site 2)", "setting": "apo-Transferrin human", "result": "~14.5", "unit": "nM"}, {"measurement": "KD1 (sequential binding sites, site 1)", "setting": "holo-Transferrin human", "result": "~0.94", "unit": "nM"}, {"measurement": "KD2 (sequential binding sites, site 2)", "setting": "holo-Transferrin human", "result": "~0.75", "unit": "nM"}]}]}
